T1: Spc98p, without fluorescent protein tag (S. cerevisiae, UniProt P53540 1-846)
T1 sequence (looked up): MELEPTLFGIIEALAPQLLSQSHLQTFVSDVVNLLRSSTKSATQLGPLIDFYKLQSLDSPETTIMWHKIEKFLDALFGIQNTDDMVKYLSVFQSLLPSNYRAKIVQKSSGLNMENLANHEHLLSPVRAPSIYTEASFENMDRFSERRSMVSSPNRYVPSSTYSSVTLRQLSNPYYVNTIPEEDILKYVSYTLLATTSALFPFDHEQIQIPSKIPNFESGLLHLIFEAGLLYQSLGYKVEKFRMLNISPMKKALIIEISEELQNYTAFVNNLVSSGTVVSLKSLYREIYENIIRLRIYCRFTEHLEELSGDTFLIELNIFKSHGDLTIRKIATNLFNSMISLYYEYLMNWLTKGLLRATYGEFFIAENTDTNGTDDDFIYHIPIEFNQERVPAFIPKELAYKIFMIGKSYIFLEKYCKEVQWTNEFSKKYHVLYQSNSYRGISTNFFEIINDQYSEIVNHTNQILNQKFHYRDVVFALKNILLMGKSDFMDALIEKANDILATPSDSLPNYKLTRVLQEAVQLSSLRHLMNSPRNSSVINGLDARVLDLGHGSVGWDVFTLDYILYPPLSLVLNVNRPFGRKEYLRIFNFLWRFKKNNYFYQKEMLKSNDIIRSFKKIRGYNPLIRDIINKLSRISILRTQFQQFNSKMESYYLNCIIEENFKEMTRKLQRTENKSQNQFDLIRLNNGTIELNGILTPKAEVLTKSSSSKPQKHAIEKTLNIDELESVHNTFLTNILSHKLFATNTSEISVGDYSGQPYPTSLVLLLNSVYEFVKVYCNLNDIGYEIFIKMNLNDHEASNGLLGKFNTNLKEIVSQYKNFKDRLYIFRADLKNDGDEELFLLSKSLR

T2: Spc98p with CFP on its C-terminus (of γ-TuSC:Spc98pCFP) (S. cerevisiae, UniProt P53540 1-846)
T2 sequence (looked up): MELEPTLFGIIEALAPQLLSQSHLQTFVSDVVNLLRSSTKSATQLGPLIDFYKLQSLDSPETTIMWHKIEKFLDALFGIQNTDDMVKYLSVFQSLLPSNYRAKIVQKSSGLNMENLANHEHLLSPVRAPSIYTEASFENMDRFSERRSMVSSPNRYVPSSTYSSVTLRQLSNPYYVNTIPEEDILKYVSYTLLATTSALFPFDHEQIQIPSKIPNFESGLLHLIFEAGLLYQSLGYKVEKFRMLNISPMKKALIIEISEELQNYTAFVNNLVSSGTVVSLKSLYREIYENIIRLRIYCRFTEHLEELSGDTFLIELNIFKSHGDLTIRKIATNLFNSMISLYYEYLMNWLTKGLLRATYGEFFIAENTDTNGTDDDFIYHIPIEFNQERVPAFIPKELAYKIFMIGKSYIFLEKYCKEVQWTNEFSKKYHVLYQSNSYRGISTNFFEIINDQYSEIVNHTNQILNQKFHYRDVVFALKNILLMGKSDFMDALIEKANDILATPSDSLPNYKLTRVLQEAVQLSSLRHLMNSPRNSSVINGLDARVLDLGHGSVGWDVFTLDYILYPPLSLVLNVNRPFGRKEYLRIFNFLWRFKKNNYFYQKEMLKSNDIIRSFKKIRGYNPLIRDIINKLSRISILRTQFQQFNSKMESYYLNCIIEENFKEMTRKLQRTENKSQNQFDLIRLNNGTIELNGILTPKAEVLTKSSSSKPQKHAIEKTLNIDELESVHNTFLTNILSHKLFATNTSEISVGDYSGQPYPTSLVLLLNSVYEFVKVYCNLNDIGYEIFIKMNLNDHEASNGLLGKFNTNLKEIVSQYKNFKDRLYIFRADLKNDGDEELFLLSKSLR

T3: Spc98p with CFP on its N-terminus (of γ-TuSC:CFPSpc98p) (S. cerevisiae, UniProt P53540 1-846)
T3 sequence (looked up): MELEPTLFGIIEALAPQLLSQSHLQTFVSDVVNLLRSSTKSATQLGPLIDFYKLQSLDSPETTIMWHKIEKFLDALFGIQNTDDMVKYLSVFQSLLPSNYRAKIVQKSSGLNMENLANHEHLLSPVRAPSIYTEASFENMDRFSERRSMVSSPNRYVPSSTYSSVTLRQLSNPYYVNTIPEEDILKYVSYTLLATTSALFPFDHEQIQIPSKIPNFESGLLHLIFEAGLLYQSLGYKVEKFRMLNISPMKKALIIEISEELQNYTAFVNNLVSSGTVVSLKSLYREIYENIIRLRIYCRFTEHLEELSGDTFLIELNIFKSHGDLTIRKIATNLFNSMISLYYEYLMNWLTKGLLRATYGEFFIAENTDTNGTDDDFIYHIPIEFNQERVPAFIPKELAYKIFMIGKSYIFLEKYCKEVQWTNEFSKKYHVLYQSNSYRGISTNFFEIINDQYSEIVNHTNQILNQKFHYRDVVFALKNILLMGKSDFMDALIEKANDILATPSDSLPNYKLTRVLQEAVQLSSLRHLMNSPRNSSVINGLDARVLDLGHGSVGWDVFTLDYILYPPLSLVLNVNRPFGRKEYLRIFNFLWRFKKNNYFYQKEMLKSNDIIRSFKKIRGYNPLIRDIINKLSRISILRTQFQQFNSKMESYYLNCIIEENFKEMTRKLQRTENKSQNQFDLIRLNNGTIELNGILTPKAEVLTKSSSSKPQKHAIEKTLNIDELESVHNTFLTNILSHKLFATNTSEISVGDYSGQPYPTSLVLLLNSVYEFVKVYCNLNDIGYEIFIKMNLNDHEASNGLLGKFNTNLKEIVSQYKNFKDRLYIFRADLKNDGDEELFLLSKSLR

B1: Spc97p with YFP on its N-terminus (of γ-TuSC:YFPSpc97p) (natural protein, S. cerevisiae, UniProt P38863 1-823, looked up)
chain: MEIKEVDDRAELLRYTNNIPLLGKLVNHQPLWSTNPKLKSFSLEKISAPDQRRVQEALVVKDLLNVLIGLEGTYIRYFNDYEPSDPETPIEFKIAKKMDPSFKTFSRRIVRYGKQYMILTRAYEKWSDTSFGMVLQRFAYEIRRFLEDVYLKTLVERLERDFNKVPNFSIRELEQIINETEVNKQMELLYNIYEEIFREIEERRTNQSSQEDFNNFMDSMKNESSLHLRLMVAFDTTVYPVPKGGAILKIFQQKILENLGDRSSVMFLKKLLNNISQDYCTMLYEWLTQGILNDPYQEFMTYDDLEGKTDNIFDTRDRAWDTQYFIRKDVLLRDCDSEEDKNLLFKMLRTGILLKVVRASLQIPTIPSNSSDITIQEINDFADLMEGSNLELYVDKCYSRANEIFLKLFFQGYDLINVLKHLQQIFLGYQSGHNVLKFLTKNMGELTKHYRNDNNANYDKLLQNFELERQSENPNNLMRQLLMIQFDTETLPQVLSHYLQIYPEVPENNSANDDSDPLMHANNFKNMNAILFDELSKERTGAYHGSNLELYTPKSAIYHLKFDINIPYPLNIIISRTCMIKYQIILRYQLVLQYHSRLLDETWMDLNKTPSWKYRGYSHTVKRRIVRATRVLHAKMNHFIKTIMEYFNQNVIDKEVYSLEKCYRNPTLAVAIQNELEGGLTNIMTNRCLSDLIPLQLQIFDIVYKFCKFIKSMRAKLCQLDPVLYEKHKSGMMKTLNEGYRTNNGGQEDVGYQEDAALELIQKLIEYISNASSIFRKCLINFTQELSTEKFDFYDSSSVDAAGIERVLYSIVPPRSASASSQR
B2: Spc97p, without fluorescent protein tag (natural protein, S. cerevisiae, UniProt P38863 1-823, looked up)
chain: MEIKEVDDRAELLRYTNNIPLLGKLVNHQPLWSTNPKLKSFSLEKISAPDQRRVQEALVVKDLLNVLIGLEGTYIRYFNDYEPSDPETPIEFKIAKKMDPSFKTFSRRIVRYGKQYMILTRAYEKWSDTSFGMVLQRFAYEIRRFLEDVYLKTLVERLERDFNKVPNFSIRELEQIINETEVNKQMELLYNIYEEIFREIEERRTNQSSQEDFNNFMDSMKNESSLHLRLMVAFDTTVYPVPKGGAILKIFQQKILENLGDRSSVMFLKKLLNNISQDYCTMLYEWLTQGILNDPYQEFMTYDDLEGKTDNIFDTRDRAWDTQYFIRKDVLLRDCDSEEDKNLLFKMLRTGILLKVVRASLQIPTIPSNSSDITIQEINDFADLMEGSNLELYVDKCYSRANEIFLKLFFQGYDLINVLKHLQQIFLGYQSGHNVLKFLTKNMGELTKHYRNDNNANYDKLLQNFELERQSENPNNLMRQLLMIQFDTETLPQVLSHYLQIYPEVPENNSANDDSDPLMHANNFKNMNAILFDELSKERTGAYHGSNLELYTPKSAIYHLKFDINIPYPLNIIISRTCMIKYQIILRYQLVLQYHSRLLDETWMDLNKTPSWKYRGYSHTVKRRIVRATRVLHAKMNHFIKTIMEYFNQNVIDKEVYSLEKCYRNPTLAVAIQNELEGGLTNIMTNRCLSDLIPLQLQIFDIVYKFCKFIKSMRAKLCQLDPVLYEKHKSGMMKTLNEGYRTNNGGQEDVGYQEDAALELIQKLIEYISNASSIFRKCLINFTQELSTEKFDFYDSSSVDAAGIERVLYSIVPPRSASASSQR
B3: Spc97p with YFP on its C-terminus (of γ-TuSC:Spc97pYFP) (natural protein, S. cerevisiae, UniProt P38863 1-823, looked up)
chain: MEIKEVDDRAELLRYTNNIPLLGKLVNHQPLWSTNPKLKSFSLEKISAPDQRRVQEALVVKDLLNVLIGLEGTYIRYFNDYEPSDPETPIEFKIAKKMDPSFKTFSRRIVRYGKQYMILTRAYEKWSDTSFGMVLQRFAYEIRRFLEDVYLKTLVERLERDFNKVPNFSIRELEQIINETEVNKQMELLYNIYEEIFREIEERRTNQSSQEDFNNFMDSMKNESSLHLRLMVAFDTTVYPVPKGGAILKIFQQKILENLGDRSSVMFLKKLLNNISQDYCTMLYEWLTQGILNDPYQEFMTYDDLEGKTDNIFDTRDRAWDTQYFIRKDVLLRDCDSEEDKNLLFKMLRTGILLKVVRASLQIPTIPSNSSDITIQEINDFADLMEGSNLELYVDKCYSRANEIFLKLFFQGYDLINVLKHLQQIFLGYQSGHNVLKFLTKNMGELTKHYRNDNNANYDKLLQNFELERQSENPNNLMRQLLMIQFDTETLPQVLSHYLQIYPEVPENNSANDDSDPLMHANNFKNMNAILFDELSKERTGAYHGSNLELYTPKSAIYHLKFDINIPYPLNIIISRTCMIKYQIILRYQLVLQYHSRLLDETWMDLNKTPSWKYRGYSHTVKRRIVRATRVLHAKMNHFIKTIMEYFNQNVIDKEVYSLEKCYRNPTLAVAIQNELEGGLTNIMTNRCLSDLIPLQLQIFDIVYKFCKFIKSMRAKLCQLDPVLYEKHKSGMMKTLNEGYRTNNGGQEDVGYQEDAALELIQKLIEYISNASSIFRKCLINFTQELSTEKFDFYDSSSVDAAGIERVLYSIVPPRSASASSQR

Legend:
Test in all cases: co-purification, SDS-PAGE with band densitometry
[1] = target: T1, Spc98p, without fluorescent protein tag
[2] = target: T2, Spc98p with CFP on its C-terminus (of …)
[3] = target: T3, Spc98p with CFP on its N-terminus (of …)
[4] = target: B1
[5] = target: B3
[6] = target: B2

Row | stoichiometry N [1] | stoichiometry N [2] | stoichiometry N [3] | stoichiometry N [4] | stoichiometry N [5] | stoichiometry N [6] | Binder
1 | 1 |  |  |  |  |  | B1
2 | 1 | 1 | 1 |  |  |  | B2
3 | 1 |  |  |  |  |  | B3
4 | 2 | 2 | 2 | 2 | 2 | 2 | γ-tubulin (Tub4p), His-tagged, as in the fluorescent-protein-tagged γ-TuSC constructs (natural protein, S. cerevisiae, UniProt P53378 1-473, looked up) MGGEIITLQAGQCGNHVGKFLWSQLAKEHAIGTDGLSQLPDSSTERDDDTKPFFRENSRNKFTPRAIMMDSEPSVIADVENTFRGFFDPRNTWVASDGASAGNSWANGYDIGTRNQDDILNKIDKEIDSTDNFEGFQLLHSVAGGTGSGLGSNLLEALCDRYPKKILTTYSVFPARSSEVVVQSYNTILALRRLIEDSDATVVFDNASLLNISGKVFRNPNIDLQHTNQLISTIISSVTNSIRFPSYMYSSMSSIYSTLIPSPELHFLSPSFTPFTSDYIHDDIAHKGHSSYDVMLDLLDPSNSLVSTAMNNPTYFNVYNTIIGNVEPRQISRAMTKLQQRIKFPSWSSSAMHVNIGRRSPYLPLQPNENEVSGMMLSNMSTVVNVFENACNTFDKVFAKGAFLNNYNVGDLFQSMQNVQDEFAESREVVQSLMEDYVAAEQDSYLDDVLVDDENMVGELEEDLDADGDHKLV
5 | 2 |  |  |  |  | 2 | γ-tubulin (Tub4p), His-tagged with the longer tag linker, as in the γ-TuSC without fluorescent protein tag (natural protein, S. cerevisiae, UniProt P53378 1-473, looked up) MGGEIITLQAGQCGNHVGKFLWSQLAKEHAIGTDGLSQLPDSSTERDDDTKPFFRENSRNKFTPRAIMMDSEPSVIADVENTFRGFFDPRNTWVASDGASAGNSWANGYDIGTRNQDDILNKIDKEIDSTDNFEGFQLLHSVAGGTGSGLGSNLLEALCDRYPKKILTTYSVFPARSSEVVVQSYNTILALRRLIEDSDATVVFDNASLLNISGKVFRNPNIDLQHTNQLISTIISSVTNSIRFPSYMYSSMSSIYSTLIPSPELHFLSPSFTPFTSDYIHDDIAHKGHSSYDVMLDLLDPSNSLVSTAMNNPTYFNVYNTIIGNVEPRQISRAMTKLQQRIKFPSWSSSAMHVNIGRRSPYLPLQPNENEVSGMMLSNMSTVVNVFENACNTFDKVFAKGAFLNNYNVGDLFQSMQNVQDEFAESREVVQSLMEDYVAAEQDSYLDDVLVDDENMVGELEEDLDADGDHKLV

— PMC2793330 (Journal of structural biology, 2009)
